# Data reported in PMC3734082 (The Journal of Cell Biology, 2013).
# Residue numbers refer to the chain shown, from its start.
# T1: MBP-CHC(1–1074)-His6 (UniProt Q00610 1-1074)
# T1 sequence (looked up): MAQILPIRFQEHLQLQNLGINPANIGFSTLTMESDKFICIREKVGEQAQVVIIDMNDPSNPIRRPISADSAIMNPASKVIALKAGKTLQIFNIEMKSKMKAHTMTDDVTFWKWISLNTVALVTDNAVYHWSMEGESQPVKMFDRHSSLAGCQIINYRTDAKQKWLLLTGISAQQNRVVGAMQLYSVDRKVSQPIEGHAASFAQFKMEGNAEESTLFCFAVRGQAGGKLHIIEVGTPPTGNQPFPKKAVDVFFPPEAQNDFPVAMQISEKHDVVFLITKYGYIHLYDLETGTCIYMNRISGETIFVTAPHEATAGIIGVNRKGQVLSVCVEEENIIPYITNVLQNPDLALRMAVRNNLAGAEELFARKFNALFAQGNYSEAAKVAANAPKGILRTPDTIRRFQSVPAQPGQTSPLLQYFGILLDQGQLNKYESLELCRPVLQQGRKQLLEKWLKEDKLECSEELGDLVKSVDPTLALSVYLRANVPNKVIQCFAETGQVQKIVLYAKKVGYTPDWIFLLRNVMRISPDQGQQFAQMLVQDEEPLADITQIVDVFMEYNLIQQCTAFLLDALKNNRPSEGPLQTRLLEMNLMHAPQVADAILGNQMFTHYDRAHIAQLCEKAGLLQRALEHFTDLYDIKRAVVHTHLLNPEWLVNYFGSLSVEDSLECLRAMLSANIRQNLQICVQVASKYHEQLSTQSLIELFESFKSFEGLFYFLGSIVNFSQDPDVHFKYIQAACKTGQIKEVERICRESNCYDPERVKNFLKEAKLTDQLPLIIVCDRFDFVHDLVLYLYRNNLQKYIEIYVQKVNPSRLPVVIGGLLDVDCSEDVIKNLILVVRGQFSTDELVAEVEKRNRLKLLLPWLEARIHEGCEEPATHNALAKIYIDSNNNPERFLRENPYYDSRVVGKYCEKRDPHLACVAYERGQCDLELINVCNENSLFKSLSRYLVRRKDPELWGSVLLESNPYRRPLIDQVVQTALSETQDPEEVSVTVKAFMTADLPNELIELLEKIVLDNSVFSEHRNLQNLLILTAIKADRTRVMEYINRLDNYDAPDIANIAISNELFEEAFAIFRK
# T2: MBP-CHC(1–1074)-His6 C+ mutant (UniProt Q00610 1-1074, T87A | Q89A | K96E | K98E)
# T2 sequence (looked up): T1 sequence (looked up) with T87A, Q89A, K96E, K98E
# B1: GST-TACC3-His6, phosphorylated with Aurora A/TPX2 (natural protein)
# chain: not shown
# modifications: phosphorylated in vitro with Aurora A/TPX2 (phosphoserine at 558, pS558)
# What was measured:
# MBP-CHC(1–1074)-His6 = molecular target: T1, MBP-CHC(1–1074)-His6; test: pull-down
# [1] = molecular target: T2, MBP-CHC(1–1074)-His6 C+ mutant; test: pull-down
binder,measurement,setting,value
B1,binding result,MBP-CHC(1–1074)-His6,binds
same,binding result,[1],binds
